{"source": "paper PMC4675670", "system": "O=C(O)[C@@H]1CCCN1", "test": "enzyme kinetics, Km", "type": "biochemical, Plasmodium falciparum", "conditions": "proline-binding pocket", "data": [{"substance": "cytoplasmic prolyl-tRNA synthetase (PfcPRS, PF3D7_1213800) (Plasmodium falciparum 3D7)", "values": [{"measurement": "Km", "value": 117.0, "unit": "µM"}]}, {"substance": "cytoplasmic prolyl-tRNA synthetase (PfcPRS, PF3D7_1213800) (Plasmodium falciparum 3D7; L482H)", "values": [{"measurement": "Km", "value": 747.7, "unit": "µM"}]}]}
